Target: molecular probe of the formula (11) (SEQ ID NO. 11), exendin-4(1-39)-Lys40 with the Lys40 side chain labeled …
Assay: ex vivo autoradiography of pancreas sections of MIP-GFP mice after i.v. injection; radioactivity co-localised with the GFP signal of beta-cells

B1: GLP-1 receptors of the pancreatic beta-cells (MIP-GFP mice) (receptor)
chain: GPRPQGTTVSLSETVQKWREYRRQCQRFLTEAPLLATGLFCNRTFDDYACWPDGPPGSFVNVSCPWYLPWASSVLQGHVYRFCTAEGLWLHKDNSSLPWRDLSECEESKRGERNFPEEQLLSLYIIYTVGYALSFSALVIASAILVGFRHLHCTRNYIHLNLFASFILRALSVFIKDAALKWMYSTAAQQHQWDGLLSYQDSLGCRLVFLLMQYCVAANYYWLLVEGVYLYTLLAFSVFSEQRIFKLYLSIGWGVPLLFVIPWGIVKYLYEDEGCWTRNSNMNYWLIIRLPILFAIGVNFLIFIRVICIVVSKLKANLMCKTDIKCRLAKSTLTLIPLLGTHEVIFAFVMDEHARGTLRFIKLFTELSFTSFQGLMVAILYCFVNNEVQMEFRKCWERWRLEHLNIQRDCSMKPLKCPTSSVSSGATVGSSVYAATCQSSYS
notes: whole, on cells; Endogenous receptor in mouse pancreas; also called glucagon-like peptide-1 receptor
  binding result: binds

Reference: patent publication US20110081663A1 (KYOTO UNIVERSITY, published 2011)
